Source: publication doi:10.1101/2021.01.07.425795 (bioRxiv, 2021)
Read-outs that look alike come from different tables or passages of the source.

Tests used:
Assay in all cases: SEC
[1] = biological target: T1, ACAD9 (wild type, without a tag) (human, UniProt Q9H845 38-621)
T1 sequence (looked up): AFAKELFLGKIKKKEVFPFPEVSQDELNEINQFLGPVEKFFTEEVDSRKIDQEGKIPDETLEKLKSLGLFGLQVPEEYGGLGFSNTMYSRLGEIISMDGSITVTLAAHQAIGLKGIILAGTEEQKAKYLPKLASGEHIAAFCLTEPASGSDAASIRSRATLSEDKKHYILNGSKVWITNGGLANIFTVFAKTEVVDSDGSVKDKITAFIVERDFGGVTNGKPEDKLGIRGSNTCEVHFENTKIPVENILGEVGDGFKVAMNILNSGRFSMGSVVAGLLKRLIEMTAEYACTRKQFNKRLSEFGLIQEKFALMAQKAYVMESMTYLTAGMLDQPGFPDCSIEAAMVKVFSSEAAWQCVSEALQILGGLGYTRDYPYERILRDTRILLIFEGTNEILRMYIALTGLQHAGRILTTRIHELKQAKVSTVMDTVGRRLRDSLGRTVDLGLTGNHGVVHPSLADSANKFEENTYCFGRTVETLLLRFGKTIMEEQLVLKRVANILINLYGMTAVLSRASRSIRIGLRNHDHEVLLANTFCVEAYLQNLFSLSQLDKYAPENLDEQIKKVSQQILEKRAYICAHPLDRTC

[2] = biological target: T2, ACAD9 Arg518His (human, UniProt Q9H845 38-621, Arg518His)
T2 sequence (looked up): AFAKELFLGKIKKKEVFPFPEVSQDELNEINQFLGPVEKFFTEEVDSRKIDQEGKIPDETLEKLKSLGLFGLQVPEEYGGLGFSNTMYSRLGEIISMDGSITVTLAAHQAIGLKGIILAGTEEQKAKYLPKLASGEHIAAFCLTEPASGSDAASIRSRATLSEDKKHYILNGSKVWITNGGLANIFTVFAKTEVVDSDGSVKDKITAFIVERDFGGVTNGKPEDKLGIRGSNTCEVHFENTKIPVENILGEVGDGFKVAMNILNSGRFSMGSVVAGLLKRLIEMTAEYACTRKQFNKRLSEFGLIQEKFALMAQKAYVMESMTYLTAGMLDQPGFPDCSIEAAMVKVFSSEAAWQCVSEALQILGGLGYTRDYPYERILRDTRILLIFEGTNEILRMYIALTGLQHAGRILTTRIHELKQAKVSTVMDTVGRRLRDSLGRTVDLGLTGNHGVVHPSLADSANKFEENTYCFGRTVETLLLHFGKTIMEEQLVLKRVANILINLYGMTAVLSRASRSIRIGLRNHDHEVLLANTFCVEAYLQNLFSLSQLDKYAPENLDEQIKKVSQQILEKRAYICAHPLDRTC

[3] = biological target: T3, ACAD9 Glu426Gln (human, UniProt Q9H845 38-621, Glu426Gln)
T3 sequence (looked up): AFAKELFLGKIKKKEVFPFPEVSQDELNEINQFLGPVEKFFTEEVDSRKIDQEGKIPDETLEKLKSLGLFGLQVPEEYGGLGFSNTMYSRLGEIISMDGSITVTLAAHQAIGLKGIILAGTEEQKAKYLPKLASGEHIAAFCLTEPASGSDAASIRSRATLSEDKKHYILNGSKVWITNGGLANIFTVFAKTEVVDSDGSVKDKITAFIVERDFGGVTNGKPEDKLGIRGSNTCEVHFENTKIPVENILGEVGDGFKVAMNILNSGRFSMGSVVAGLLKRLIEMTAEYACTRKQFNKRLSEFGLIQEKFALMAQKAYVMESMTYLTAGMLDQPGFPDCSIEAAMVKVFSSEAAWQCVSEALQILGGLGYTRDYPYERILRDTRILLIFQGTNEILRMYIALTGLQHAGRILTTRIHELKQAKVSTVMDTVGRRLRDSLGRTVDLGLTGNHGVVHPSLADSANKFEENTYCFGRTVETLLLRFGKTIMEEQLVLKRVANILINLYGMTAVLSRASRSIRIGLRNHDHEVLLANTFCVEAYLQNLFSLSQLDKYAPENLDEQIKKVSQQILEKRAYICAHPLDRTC

[4] = biological target: T4, ACAD9 Arg469Trp (human, UniProt Q9H845 38-621, Arg469Trp)
T4 sequence (looked up): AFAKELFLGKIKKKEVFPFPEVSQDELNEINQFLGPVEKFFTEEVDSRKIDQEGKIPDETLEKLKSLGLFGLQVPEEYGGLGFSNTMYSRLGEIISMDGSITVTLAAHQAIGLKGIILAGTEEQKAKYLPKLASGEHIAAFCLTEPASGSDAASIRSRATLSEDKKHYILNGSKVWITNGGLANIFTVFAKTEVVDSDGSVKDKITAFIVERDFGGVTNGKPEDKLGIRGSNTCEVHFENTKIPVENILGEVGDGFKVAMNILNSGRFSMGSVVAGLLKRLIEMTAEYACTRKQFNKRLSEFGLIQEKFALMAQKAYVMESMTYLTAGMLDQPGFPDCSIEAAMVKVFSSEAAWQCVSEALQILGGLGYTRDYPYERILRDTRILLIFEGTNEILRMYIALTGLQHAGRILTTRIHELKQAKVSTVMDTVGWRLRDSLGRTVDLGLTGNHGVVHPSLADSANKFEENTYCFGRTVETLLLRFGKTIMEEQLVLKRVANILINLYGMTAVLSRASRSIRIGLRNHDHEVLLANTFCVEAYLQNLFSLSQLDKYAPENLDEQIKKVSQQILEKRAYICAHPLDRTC

[5] = biological target: T1, ACAD9 (wild type, without a tag); remark: listed apart in the source
[6] = biological target: the molecule itself

stoichiometry N [1]: 1 mol/mol
binding result [2]: binds
binding result [3]: binds
binding result [4]: binds
stoichiometry N [5]: 1 ECSIT chains per ACAD9 chain (one dimer with one dimer)
B1: His6-ECSIT (natural protein, human, UniProt Q9BQ95 49-431, looked up)
chain: SSEQSLVPSPPEPRQRPTKALVPFEDLFGQAPGGERDKASFLQTVQKFAEHSVRKRGHIDFIYLALRKMREYGVERDLAVYNQLLNIFPKEVFRPRNIIQRIFVHYPRQQECGIAVLEQMENHGVMPNKETEFLLIQIFGRKSYPMLKLVRLKLWFPRFMNVNPFPVPRDLPQDPVELAMFGLRHMEPDLSARVTIYQVPLPKDSTGAADPPQPHIVGIQSPDQQAALARHNPARPVFVEGPFSLWLRNKCVYYHILRADLLPPEEREVEETPEEWNLYYPMQLDLEYVRSGWDNYEFDINEVEEGPVFAMCMAGAHDQATMAKWIQGLQETNPTLAQIPVVFRLAGSTRELQTSSAGLEEPPLPEDHQEEDDNLQRQQQGQS
stoichiometry N [6]: 2
